Measurements: patent publication US10280218B2, “Antibodies binding to BMP4, and uses thereof” (ACADEMISCH MEDISCH CENTRUM, priority 2014, dated 2019)
“Also recorded” adds a separate entry of the source.

T1: BMP6 (Homo sapiens, UniProt P22004)
T1 sequence (P22004 375-513): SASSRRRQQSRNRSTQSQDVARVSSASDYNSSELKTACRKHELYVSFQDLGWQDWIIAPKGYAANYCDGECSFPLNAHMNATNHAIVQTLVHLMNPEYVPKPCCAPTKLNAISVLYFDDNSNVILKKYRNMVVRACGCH

T2: BMP2 (Homo sapiens, UniProt P12643)
T2 sequence (P12643 283-396): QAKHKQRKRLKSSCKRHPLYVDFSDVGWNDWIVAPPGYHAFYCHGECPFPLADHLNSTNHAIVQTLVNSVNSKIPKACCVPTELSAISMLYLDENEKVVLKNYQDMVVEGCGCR

B1: hNoggin (protein)
chain: QHYLHIRPAPSDNLPLVDLIEHPDPIFDPKEKDLNETLLRSLLGGHYDPGFMATSPPEDRPGGGGGAAGGAEDLAELDQLLRQRPSGAMPSEIKGLEFSEGLAQGKKQRLSKKLRRKLQMWLWSQTFCPVLYAWNDLGSRFWPRYVKVGSCFSKRSCSVPEGMVCKPSKSVHLTVLRWRCQRRGGQRCGWIPIQYPIISECKCSC
B2: C8E7: E7 linked to C8, hetero-dimer VHH bihead (protein)
chain: EVQLVESGGGLVQAGGSLRLSCAASGRTFRINDMGWYRQAPGKSRDMVARITSGGNTNYADSVKGRFTISRDNAKNTVYLQMNSLKPEDTAVYYCNADGLRFDSTRYRPFDSWGQGTQVTVSSGGGGSGGGGSEVQLVESGGGLVQAGGSLRLSCAASGSIRGFVAMAWYRQAPGKQREWVATVTNGGTLYGDSVKGRFTGSRDNAKNTVYLQMNSLKPEDTAVYYCALRQIGASGYDYWGQGTQVTVSS

How the values were obtained:
[1] = target: T1, BMP6; assay: Surface plasmon resonance (SPR), BMPs injected over VHH-coated chip; conditions: molecule coupled to chip; unit inferred; — not defined there (Table 1: No binding detected)
Experimental: To confirm their BMP specificities and to elucidate their binding affinities, our VHHs were subjected to surface plasmon resonance (SPR) analysis. In a first set of experiments, controls and VHHs (either as monomers or dimers) were coupled to SPR chips and the measurement of BMP affinities was obtained by injecting the different BMPs to the plate.
Serial dilutions (2.0-10 μg/ml) of purified VHHs were spotted on an amine-specific SensEye gold-film gel-type SPRchip (Ssens), using a Continuous Flow Microspotter (Wasatch Microfluidics, Salt Lake City, Utah, United States) as described (Lokate et al., 2007). BMP binding was analyzed on an IBIS MX96 (IBIS Technologies, Enschede, The Netherlands) instrument by performing injections with dilution series (0.05-2.0 μg/ml) of recombinant BMPs on the VHH-coated chip. In each injection, BMPs were injected and incubated for 8 min, followed by 15 min thorough washing with binding buffer (PBS+0.05% Tween20+0.05% sodium azide) to measure dissociation. Epitope binning was done by injecting VHH dilutions (2.0 μg/ml) over the chip, immediately after the dissociation step. Injections with blank binding buffer were used as reference. After each concatenated injection, the chip was regenerated with 10 mM glycine-HCl, pH 2.0. Experimental data were processed with SPRintX software (IBIS Technologies) and kinetic parameters were determined using Scrubber2 software (BioLogic Software, Campbell, ACT, Australia). Binding constants were obtained by global fitting to a one-site binding model.

[2] = target: T2, BMP2; assay: BMP activity luciferase reporter assay (BRE-luciferase, ID1 promoter) in C2C12 cells; format: cell-based, mouse
Experimental: (§1) One of the most studied BMP target genes is the Inhibitor of Differentiation 1 (ID1). This is an immediate early gene that is activated by binding of the phosphorylated SMADs to its promoter region (López-Rovira et al., 2002). Thus, we employed the BMP-responsive C2C12 cells, which are stably transfected with the BRE-luciferase vector containing the BMP-Responsive-Element (the mouse ID1 promoter) cloned into the pGL3 luciferase vector (Zilberberg 2007). […] C2C12 cells were treated with the different BMPs with or without our VHHs or human Noggin at a concentration of 5 μg/ml. Luciferase activity was measured after 16 hours incubation. Most of the transcriptional data is in concordance with the results obtained with the phosphorylation of SMAD1/5/8.
(§2) C2C12 cells were plated in 96-well plates at 5×10^3 cells/well and cells were allowed to attach overnight. 100 μl of DMEM with 0.1% BSA were added in each well. VHH antibodies and human Fc-Noggin at the indicated concentrations were added at the same time. Wells with unstimulated cells were added as controls. Cells were treated in triplicate with the BMPs at the indicated concentrations for 16 hours. Luciferase activity was measured by adding 100 μl of luciferase substrate solution from the Bright-Glo™ Luciferase Assay System (Promega Benelux, Leiden, The Netherlands). After 3 minutes of incubation, luciferase activity was measured with Synergy HT Multi-Mode Microplate Reader (Biotek, Winooski, Vt., United States). Luciferase values were normalized to background activity (activity of wells with no cells) and represented as ratio to the activity of BMP-stimulated cells.
(§3) To evaluate the extent of this increase in potency, the IC50 of the different VHHs were determined in a dose-dependent inhibition assay in C2C12 cells (FIG. 25). C2C12 cells were plated in 96-well plates at 5×10^3 cells/well and cells were allowed to attach overnight 100 μl of DMEM with 0.1% BSA were added in each well. VHH antibodies were added at the indicated concentrations at the same time as 5 ng/ml BMP4 (FIG. 25A-B, D) or 50 ng/ml of BMP2 (FIG. 25C,D). Luciferase activity was measured after 16 hours. Values are represented as ratio to the activity of BMP-stimulated cells. […] However, its effects were more striking for BMP2 rather than BMP4 inhibition. […] The IC50 values for BMP4 inhibition observed in our VHHs are considerably lower than those observed for anti-BMP4 commercially available from R&D (Katagiri et al 1994) and those described in WO_2008/030611.
(§4) C2C12 cells were cultured in 96-well plates at 5×10^3 cells/well. After overnight attachment cells were stimulated with 10 ng/ml hBMP4 (Cat No. 314-BP-020; R&D Systems), 50 ng/ml hBMP2 (Cat No. 355-BM-010; R&D Systems), 200 ng/ml hBMP5 (Cat No. 615-BMC-020; R&D Systems), 50 ng/ml hBMP6 (Cat No. 506-BP-020; R&D Systems), 200 ng/ml hBMP7 (Cat No. 354-BP-010; R&D Systems), 25 ng/ml hBMP9 (Cat No. 3209-BP-010; R&D Systems), 25 ng/ml hBMP10 (Cat No. 2926-BP-025; R&D Systems), 50 ng/ml hBMP12 (Cat No. 779-G7-010; R&D Systems) and with or without VHH antibodies: C4C4 and C8C8 at 500 ng/ml; natural antagonist: mNoggin (Cat No. 1967-NG-025; R&D Systems), hNoggin (Cat No. 6057-NG; R&D Systems) and mGremlin (cat#956-GR-050; R&D Systems) at 500 ng/ml; chemical antagonist: 0.5 μM LDN-193189 (Cat No. 11802; Cayman Chemical) and 0.2 μM DMH1 (Cat No. 57146; Selleckchem).
(§5) VHH efficacy was evaluated by stimulating cells with 10 ng/ml of hBMP4 and 50 ng/ml of hBMP2, with and without increase concentrations (from 0.1-10 μg/ml) of VHH and anti-BMP4 antibodies: clone 66119, clone 3H2, clone M912262, clone PA354-16.1.1, Clone EPR6211, and anti-BMP4 (ab39973). […] Unstimulated cells were used as controls and wells with no cells used to normalize the background activity. […]

[3] = tested on: human BMP4; assay: as above; format: cell-based, mouse
Experimental: as §1, §2, §3, §4, §5

| Molecule | Kd [1] | inhibition of BMP-2 signals, comparison of inhibitors ([2]; 50 ng/ml hBMP2, 16 h, VHH, Noggin, Gremlin 500 ng/ml, LDN 0.5 μM, DMH1 0.2 μM) | IC50 ([2]; 50 ng/ml hBMP2, 16 hours, read-out: IC50, neutralization of BMP2) | inhibition of BMP4-derived signals, comparison of inhibitors ([3]; 10 ng/ml hBMP4, 16 h, VHH, Noggin, Gremlin 500 ng/ml, LDN 0.5 μM, DMH1 0.2 μM) | IC50 ([3]; 10 ng/ml hBMP4, 16 hours, read-out: IC50, neutralization of BMP4) | inhibition of BMP2-mediated transcriptional activation by dimers ([2]; BMP2 50 ng/ml, 16 hours, increasing concentrations up to 5 μg/ml) | inhibition of BMP4-mediated transcriptional activation by dimers ([3]; BMP4 5 ng/ml, 16 hours, increasing concentrations) |
| --- | --- | --- | --- | --- | --- | --- | --- |
| B1 | 50 nM | greatly inhibit | ~1.6 nM | greatly inhibit | ~0.54 nM |  |  |
| B2 | 50 nM |  |  |  |  | inhibit; also recorded: similar | inhibit; also recorded: similar |
